Here are results for two molecules from patent US20040053231A1 (published 2004).

The target in experiment [1] is T1, GST-p300CH1 (p300 residues 300-528) (UniProt Q09472 300-528).
T1 construct: range 300-528; Bacterially expressed, immobilised on glutathione beads; the construct is described in Bhattacharya et al., 1999; also called GST-CH1; GST tagged p300 (CH1 domain); not shown: glutathione S-transferase tag from pGEX4T1 (Pharmacia)
Briefly: GST pull-down of 35S-labelled in vitro translated protein on GST-p300CH1.

Experiment [2] addresses T2, GAL4-CH1 (residues 300-528 of p300 fused to the DNA-binding domain of GAL4) (UniProt P04386 1-147; Q09472 300-528).
T2 construct: also called GAL4-p300CH1
Briefly: mammalian two-hybrid, GAL4-luciferase reporter, Hep3B cells.

T1 sequence (Q09472 300-528): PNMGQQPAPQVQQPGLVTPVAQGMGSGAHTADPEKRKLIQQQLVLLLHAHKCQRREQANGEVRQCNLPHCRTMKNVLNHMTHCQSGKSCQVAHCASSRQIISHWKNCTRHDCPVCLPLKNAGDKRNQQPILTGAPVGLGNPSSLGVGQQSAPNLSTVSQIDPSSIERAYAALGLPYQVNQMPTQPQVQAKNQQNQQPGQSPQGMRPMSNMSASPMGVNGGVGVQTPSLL

B1: HCITEDX mutant lacking the carboxy-terminal residues 138 to 184 (other)
chain: MADHLMLAEGYRLVQRPPSAAAAHGPHALRTLPPYAGPGLDSGLRPRGAPLGPPPPRQPGALAYGAFGPPSSFQPFPAVPPPAAGIAHLQPVATPYPGRAAAPPNAPGGPPGPQPAPSAAAPPPPAHALGGMDAELI
modifications: 35S-labelled (in vitro translated) in the GST pull-down assay
notes: also called HCITEDXΔ; carboxy-terminal mutant
With B1, the binding result in experiment [1] is “no binding”.

B2: VP16-HCITEDX? (VP16 activation domain fused to residues 1-137 of HCITEDX) (other)
chain: B1 chain
notes: also called VP16-HCITEDXΔ
In the case of B2, the binding result in experiment [2] is given as “no binding”.
